Results published in article PMC4397963, “Phospho-Tyrosine(s) vs. Phosphatidylinositol Binding in Shc Mediated Integrin Signaling” (American journal of molecular biology, 2015).
“Also recorded” adds a separate entry of the source. One block for each molecule: values may come before it. Where a SMILES comes first, the peptide text is derived from it. Where no end group is shown, it is not given here. [ ]: non-standard residue; d: D form. pY = N[C@@H](Cc1ccc(OP(=O)(O)O)cc1)C(=O)O

Key:
[1] = molecular target: T1, full length Shc (1 – 473) (Homo sapiens, UniProt P29353); assay: ITC binding to full length Shc; settings: full-length Shc titrated by bi-β3, Ins(1,4,5)P3 at 3 to 1
T1 construct: The vector of pET28a-full length Shc (1 – 473), generously provided by Dr. Ladbury; His-tag (N); made in house; host or cells: E. coli BL21 (DE3), pET28a (vector a gift from Dr. Ladbury)
T1 sequence (P29353 1-473 isoform P29353-2): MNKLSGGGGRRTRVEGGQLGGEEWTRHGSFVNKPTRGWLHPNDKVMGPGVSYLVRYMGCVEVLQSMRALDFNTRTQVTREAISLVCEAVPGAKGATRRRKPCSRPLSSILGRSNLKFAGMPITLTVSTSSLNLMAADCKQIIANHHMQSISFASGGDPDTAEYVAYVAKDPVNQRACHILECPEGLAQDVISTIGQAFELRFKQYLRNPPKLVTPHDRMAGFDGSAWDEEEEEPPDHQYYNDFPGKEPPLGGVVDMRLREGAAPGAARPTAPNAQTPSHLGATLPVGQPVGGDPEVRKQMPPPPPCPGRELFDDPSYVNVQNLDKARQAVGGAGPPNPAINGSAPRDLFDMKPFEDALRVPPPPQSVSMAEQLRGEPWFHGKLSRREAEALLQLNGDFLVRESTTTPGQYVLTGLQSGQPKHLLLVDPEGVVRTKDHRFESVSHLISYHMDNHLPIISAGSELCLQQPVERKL
Description: The Shc PTB domain (17 – 207) containing the pET15b vector was transformed into a Rosetta (DE3) cell line to pursue optimal expression levels. SH2 domain (380 – 473) was cloned into NdeI and XhoI sites in pET21b vector and then transformed into a BL21 (DE3) cell line. The vector of pET28a-full length Shc (1 – 473), generously provided by Dr. Ladbury (University of Texas MD Anderson Cancer Center, TX), was expressed in a BL21 (DE3) cell line as well. Typically, 10 ml overnight culture was used to inoculate 1 liter LB broth. Cells were grown at 37°C until OD600 reached 0.6. At this point the culture was cooled to room temperature and then the overnight overexpression was induced by 1 mM isopropyl-β-D-thiogalactopyranoside. Harvested cells were kept at −20°C for future purification or resuspended in lysis buffer supplemented with protease inhibitors. Cells were further lysed by french press and the cell debris was removed by centrifugation at 18,000 rpm at 4°C. […] The overexpression of the target protein and the purified protein were confirmed by SDS-PAGE and the bands of the expected mass were observed. […]
Calorimetric measurements of a full length Shc, PTB domain, and SH2 domain to β3 phosphopeptides or PtdIns were performed on a low volume Nano ITC (TA Instruments). […] The concentration of protein samples was determined by UV measurements. […]

[2] = molecular target: T2, Shc PTB domain (17 – 207) (Homo sapiens, UniProt P29353); assay: ITC binding to Shc PTB domain; settings: PtdIns binding to PTB domain, ITC, 25°C
T2 construct: The Shc PTB domain (17 – 207) containing the pET15b vector was transformed into a Rosetta (DE3) cell line; His-tag (N); made in house; host or cells: E. coli Rosetta (DE3), pET15b
T2 sequence (P29353 17-207 isoform P29353-2): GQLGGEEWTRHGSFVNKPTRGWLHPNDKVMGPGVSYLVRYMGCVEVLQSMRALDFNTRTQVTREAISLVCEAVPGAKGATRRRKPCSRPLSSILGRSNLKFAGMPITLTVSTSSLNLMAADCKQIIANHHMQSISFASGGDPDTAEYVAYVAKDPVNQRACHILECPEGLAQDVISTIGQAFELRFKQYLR
Description: The Shc PTB domain (17 – 207) containing the pET15b vector was transformed into a Rosetta (DE3) cell line to pursue optimal expression levels. SH2 domain (380 – 473) was cloned into NdeI and XhoI sites in pET21b vector and then transformed into a BL21 (DE3) cell line. The vector of pET28a-full length Shc (1 – 473), generously provided by Dr. Ladbury (University of Texas MD Anderson Cancer Center, TX), was expressed in a BL21 (DE3) cell line as well. Typically, 10 ml overnight culture was used to inoculate 1 liter LB broth. Cells were grown at 37°C until OD600 reached 0.6. At this point the culture was cooled to room temperature and then the overnight overexpression was induced by 1 mM isopropyl-β-D-thiogalactopyranoside. Harvested cells were kept at −20°C for future purification or resuspended in lysis buffer supplemented with protease inhibitors. Cells were further lysed by french press and the cell debris was removed by centrifugation at 18,000 rpm at 4°C. […] The overexpression of the target protein and the purified protein were confirmed by SDS-PAGE and the bands of the expected mass were observed. The determination of protein concentration by UV measurement was consistent with Bradford assay.
Calorimetric measurements of a full length Shc, PTB domain, and SH2 domain to β3 phosphopeptides or PtdIns were performed on a low volume Nano ITC (TA Instruments). All experiments were carried out in a buffer of 50 mM Tris, pH 7.5, 100 mM NaCl, 5 mM β-mercaptoethanol (unless described otherwise) at 12°C or 25°C with a stirring speed of 250 rpm to minimize the precipitation of the protein. 300 second time intervals were set between injections. The concentration of protein samples was determined by UV measurements. The titrants (β3 phosphopeptides or PtdIns) were prepared in the same buffer by the dilution of higher concentration stocks. The concentrations of the protein ranged from 30 μM to 150 μM. The concentration of protein was examined after each ITC experiment by UV to ensure the stability of proteins under the test condition. The analysis of the data was done with Nano Analyze Software (TA Instruments) suite using an “independent” model.

[3] = molecular target: T3, Shc PTB domain (17 – 207) (UniProt P29353-2 17-207); assay: ITC; Nano ITC; β3 phosphopeptide titrated into the Shc protein over-saturated by Ins(1,4,5)P3 at 3 to 1 lipid to protein ratio; 12°C; settings: both partners purified
T3 construct: Shc adaptor protein (p52 isoform), PTB domain, residues 17-207, from a pET15b vector; numbers count on: the p52 isoform (full length 1-473); 15N-labelled (M9 medium with 15NH4Cl) for the NMR experiments; Monomeric on Superdex-75; also called apo PTB domain; source: E. coli Rosetta (DE3), purified (Ni-NTA, Superdex-75)
T3 sequence (looked up): T2 sequence (P29353 17-207 isoform P29353-2)

[4] = molecular target: T4, full length Shc (1 – 473) (UniProt P29353-2 1-473); assay: as above; settings: both partners purified
T4 construct: Shc adaptor protein, full length 1-473 (printed length 473 residues, the p52 isoform), from a pET28a vector provided by Dr. Ladbury; numbers count on: the p52 isoform; Monomeric on Superdex-75; also called Shc full length; p52 Shc; source: E. coli BL21 (DE3), purified (Ni-NTA, Superdex-75)
T4 sequence (looked up): T1 sequence (P29353 1-473 isoform P29353-2)

[5] = molecular target: T3, Shc PTB domain (17 – 207); assay: ITC; Nano ITC; β3 phosphopeptide titrated into the Shc protein (30-150 μM); 25°C; 50 mM Tris, pH 7.5, 100 mM NaCl, 5 mM β-mercaptoethanol; independent model; settings: both partners purified
[6] = molecular target: T4, full length Shc (1 – 473); assay: as above; settings: both partners purified
[7] = molecular target: T3, Shc PTB domain (17 – 207); assay: ITC; Nano ITC; β3 phosphopeptide titrated into the Shc protein (30-150 μM); 12°C; 50 mM Tris, pH 7.5, 100 mM NaCl, 5 mM β-mercaptoethanol; independent model; settings: both partners purified
[8] = molecular target: T4, full length Shc (1 – 473); assay: as above; settings: both partners purified
[9] = molecular target: T3, Shc PTB domain (17 – 207); assay: ITC; Nano ITC; β3 phosphopeptide titrated into the Shc protein (30-150 μM); 25°C; 50 mM Tris, pH 7.5, 100 mM NaCl, 5 mM β-mercaptoethanol; independent model; settings: both partners purified; remark: listed apart in the source
[10] = molecular target: T4, full length Shc (1 – 473); assay: as above; settings: both partners purified; remark: listed apart in the source

- change in Kd caused by Ins(1,4,5)P3 [1]: slight reduction of Kd value
Molecule: CC[C@H](C)[C@H](NC(=O)[C@H](CC(N)=O)NC(=O)[C@@H](NC(=O)[C@H](Cc1ccccc1)NC(=O)[C@@H](NC(=O)[C@H](CO)NC(=O)[C@@H](NC(=O)[C@H](C)NC(=O)[C@H](CCC(=O)O)NC(=O)[C@H](CCCCN)NC(=O)[C@H](Cc1ccc(OP(=O)(O)O)cc1)NC(=O)[C@H](CC(C)C)NC(=O)[C@@H]1CCCN1C(=O)[C@H](CC(N)=O)NC(=O)[C@H](CC(N)=O)NC(=O)[C@H](C)NC(=O)[C@@H](NC(=O)[C@H](CC(=O)O)NC(=O)[C@H](Cc1c[nH]c2ccccc12)NC(=O)[C@H](CCCCN)NC(=O)[C@H](C)NC(=O)[C@@H](N)CCCNC(=N)N)[C@@H](C)O)[C@@H](C)O)[C@@H](C)O)[C@@H](C)O)C(=O)N[C@H](C(=O)N[C@@H](Cc1ccc(OP(=O)(O)O)cc1)C(=O)N[C@@H](CCCNC(=N)N)C(=O)NCC(=O)N[C@H](C(=O)O)[C@@H](C)O)[C@@H](C)O [bi-β3] (H-RAKWDTANNPL[pY]KEATSTFTNIT[pY]RGT-OH)

- ΔG ([2]; pH 7.5): No binding
- ΔH ([2]; pH 7.5): No binding
- −TΔS ([2]; pH 7.5): No binding
Molecule: Phosphatidylinositol-5-phosphate [PtdIns(5)P1]
- Kd ([2]; 50 mM Tris pH 7.5, 100 mM NaCl, 5 mM β-mercaptoethanol, "independent" model, dihexanoyl- or dioctonoyl- PtdIns): not able to detect the binding; also recorded: does not show to bind; also recorded: No binding

- Kd [3]: 1120 nM
- dH [3]: -5.65 kcal/mol
- Kd [4]: 870 nM
- dH [4]: -5.05 kcal/mol
- Kd [5]: 340 nM
- stoichiometry N [5]: 1 ± 0.15
- stoichiometry N [6]: 1 ± 0.15
- Kd [7]: 1050 nM
- dH [7]: -5.78 kcal/mol
- Kd [8]: 820 nM
- dH [8]: -5.03 kcal/mol
- Kd [9]: 350 nM
- dH [9]: -6.07 kcal/mol
- Kd [10]: 1330 nM
- dH [10]: -1.77 kcal/mol
B1: c-β3: β3 integrin derived peptide phosphorylated at C-terminal tyrosine (Y759) (peptide)
peptide: ATSTFTNIT[pY]RGT
notes: integrin β3 cytoplasmic tail, residues 750-762, Y759 phosphorylated; also called mono-phosphorylated peptide; source: synthetic peptide (NEO-Peptide)
